Laboratory results published in patent US20210063395.
Read-outs that look alike come from different tables or passages of the source.

Assays:
gliadin [1] = details: Gli4-FAM-PEG-rGO/Q-glia fluorescence at 520 nm; differs from Table 1 value
[2] = test system: lactose protein (as named; milk protein presumably); details: Gli4-FAM-PEG-rGO/Q-glia fluorescence at 520 nm; specificity control
[3] = test system: Q-gliadin (gliadin-BHQ-1 quencher conjugate); details: Gli4-FAM-PEG-rGO fluorescence at 520 nm; SE 0.02
gliadin [4] = details: Gli4-FAM-PEG-rGO/Q-glia fluorescence recovery at 520 nm, 100 nM aptamer; SE 0.1912; p66 gives about 0.11 ppm

Work on “CCAGTCTCCCGTTTACCGCGCCTACACATGTCTGAATGCC [Gli4-FAM]” yielded a Kd (gliadin [1]) of 0.11 ppm, a Kd [2] of 13.2 ppm and a Kd [3] of 148 ppm. The Kd (gliadin [4]) was 0.76 ppm.
